According to the supplement of paper PMC9170038:
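Note: bound reporter read as fluorescence of individual clusters on recovered sequencing chips by microscopy, with normalized cluster intensities fitted with a binding model.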

What follows are sequences tested on K4 kissing-loop RNA reporter (assay: apparent KD of K4 kissing-loop reporter; higher = weaker reporter binding). Conditions: Eterna round: R107; input ligand: FMN 200 uM.
Description: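 RNA-MaP round R107: designed RNA switches with theophylline, tryptophan, arginine or FMN aptamers are transcribed on-chip within common flanks. They are titrated with a labelled K4 kissing-loop RNA reporter in RNA-MaP buffer (100 mM Tris pH 7.5, 80 mM KCl, 4 mM MgCl2), without ligand or with the indicated ligand. Median apparent KD per design.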
With “AAAUUUAUAUUAGAUACCAGUUUAAUGGAUGUAAAUUAUGACAUGAGUGAUGUUCAUGUAAGCCCUUGGCAGCUGGUAUGGGUUU [KL-XTheo-B21]” the “apparent KD of K4 kissing-loop reporter” value was 127 nM.
In the case of “AUGCGCGUGCGAUGGAAAUCGCACGCGCAUCGAGGACCGGUACGGCCGCCACUCGCUCGCGCCGAGUGAUGUUCGGCCGGCGAAC [#2 SameState - Tryptophan_A Attempt #3 (HarryS)]”, the “apparent KD of K4 kissing-loop reporter” value is reported as 180 nM.
With “AUGACUCAAUAGUGAGUGAUGUUCACUGGACGAGGACCGGUACGGCCGCCACUCGAGAGUGGUGGACACUGUGUCACUGAGUCAU [Tryp A Ex t1]” the “apparent KD of K4 kissing-loop reporter” value was 180 nM.
In the case of “AAACGUUGGUGCGAUACCAGCUGGUCGGAAACGACCUUGCUGGAGUGAUGUUCCAAGUAAAGCCCUUGGCAGCGCACCGACGAAA [MAT - Same State Theophlline B - Mod of Eli - D23]”, the “apparent KD of K4 kissing-loop reporter” value is reported as 122 nM.
“AUACAGCGAAGCGCUAGUGAUGUUAGCGAAGGAGCGACUCAGGAGUCAGGUAGGUCGCGCUAAACAGGUUACGAGAGUAACCAGU [Arg A Ex t1]” was tested, and the “apparent KD of K4 kissing-loop reporter” value was 142 nM.
“CGGGAUGUUAAAGGAUAUAGCAGGUGAUACAAGAAAGUGAGUGAUGUUUAUGUAGAUGAUGAUAUGUUAGAAGGUUAACAAAACG [abcdefghijkl]” was tested, and the “apparent KD of K4 kissing-loop reporter” value was 1040 nM.
In the case of “UUACCAAGUGAUGUUUGGAAAUAUCCUAGGCAGGAUAUGCGGAAACGCAGAAGGGCCACCUUCUAGUGAAGGAAACUUCGCUAUU [Ex FMN A 3]”, the “apparent KD of K4 kissing-loop reporter” value is reported as 288 nM.
With “GCUAUGGUAGGAAGGAGCGCUUACUCAUUAAUAAGAGUGAUGUUCGAUAAUGAGUAUUUAUAGCAGGUAGGUCGCCUACUAUAGC [Arginine B K4 3]” the “apparent KD of K4 kissing-loop reporter” value was 280 nM.
“AGGAUCCGUCGACAAAAGUCGACAUAAGCCAAGGAUAUGACGAAAGUCAGAAGGUGGUCAUAAGACCAGUGAUGUUGGUGGAUCC [FmnA 13 #SwitchBubble #K4Late]” was tested, and the “apparent KD of K4 kissing-loop reporter” value was 909 nM.
For “GCGCUUAAAUAAGGAUAUUACAGACUCAUCUACGAGUGAUGUUCGGUGCGCUGUGCACAGAGCCUGUAAGAAGGUAUAGCAUUGC [theeternabot_sameState_KL_FMN_B_41]”, the “apparent KD of K4 kissing-loop reporter” value was 1010 nM.
“UUUAGGAGUGGUGUUGAUUAGGGAGCGGAAGGAGCGCCGAGGAAGGCAGGUAGGUCGCCGGAUUAUAGUGAUGUUAUGAAGAGGG [ExArg.M]” was tested, and the “apparent KD of K4 kissing-loop reporter” value was 875 nM.
With “UGUGAGCUGUCGACAAAAGUCGACUAAAACUAGGAUAUGACGAAAGUCAGAAGGAGUCAAUAAUGGAGUGAUGUUCCUGCUCACU [FmnA 9 U31+A55]” the “apparent KD of K4 kissing-loop reporter” value was 277 nM.
In the case of “GGGCGCGGCGCGGCCGCCACUGCGCCUGGGUGCUCGCUGAGUGAUGUUCGUCGGCGGUUGGGUGGUAGGACCGGGUGCUGGCCGG [BDazzled - #13 SS Tryptophan B]”, the “apparent KD of K4 kissing-loop reporter” value is reported as 654 nM.
“UUUUAAAUAUCUGAUACCAGAGCGAAUAUAUGUAGUGAUGUUAUAUACAAAAUAAAUAAGCUCCCUUGGCAGCAGUAUUAAUUUU [Astros-ExyTheB#?#ED14.66]” was tested, and the “apparent KD of K4 kissing-loop reporter” value was 1020 nM.
With “CCCUAUAUAUGCAGUGAUGUUGCAACUGAUACCAGUAUCGAAAGAUACCCUUGGCAGCGGAAAACCGCUACGUAAUUUAAUAGGG [Ex Theophylline A K4 21]” the “apparent KD of K4 kissing-loop reporter” value was 384 nM.
In the case of “ACCGCAUUGGGAUGAUCCCAAUGCGCUGGUCGAGGACCGGUACGGCCGCCACUCGUCCAGUGAUGUUGGAAUUGGGCUACUGAAG [KL-XTryp-A11]”, the “apparent KD of K4 kissing-loop reporter” value is reported as 134 nM.
With “GGCAUGGUGACGCGGCGGCCAUGCACUUGGGAGGAUAUGUUUCGUGACAGAAGGCCCAGUGAUGUUGGGUCUGUUCAAAAGGACU [Riteveat]” the “apparent KD of K4 kissing-loop reporter” value was 491 nM.

Same assay, conditions: Eterna round: R107; input ligand: arginine 13.2 mM
“UAAGAAUAAGAUGCAGUGAUGUUGCAUCUACGAGGACCGGUACGGCCGCCACUCGAGGUCCUCGAACUGCAUCAGAGGACAAUAA [(H,1)-(H,2)-(Trp1)-(Trp2)-(T)'-(H)'-(T)'']” was tested, and the “apparent KD of K4 kissing-loop reporter” value was 184 nM.
In the case of “AAAAUAAAUAGCAGUCAUGGAGUGAUGUUCCGAGGACCGGUACGGCCGCCACUCGACCAUCAUAAGAUGGAUGGCGAAGACUGCA [#SwitchBubble 24 #K4Early]”, the “apparent KD of K4 kissing-loop reporter” value is reported as 544 nM.
“GGACACUAGGAAACUAGUGUCUCAACUGAAGGAGCGUGAAUAGUCACAGGUAGGUCGCAGUUUGUUAGUGAUGUUGACAUGAGUU [#16 K4 Arginine A Same State]” was tested, and the “apparent KD of K4 kissing-loop reporter” value was 394 nM.
In the case of “UGAUACCAGACGGCCGCCACUGCACCAGUCAAUGACUGAGUGCGGUAGUGCUCAGUGAUGUUGAGUAGGACCGGGUCUGGUAUCU [Mod of Eli's TrypBX 8 v3]”, the “apparent KD of K4 kissing-loop reporter” value is reported as 124 nM.
“UUUAUUAAGACGGCCGCCACUGAAUCAUAGUGAUGUUAUGAUAUAAUUUUAGUGAUUUUGAUUAGCAGGACCGGGUCAAUUAUUA [#26 K4 Tryptophan B Exclusion]” was tested, and the “apparent KD of K4 kissing-loop reporter” value was 133 nM.
In the case of “GGUGACGGCCAGGAGUGAUGUAUAGAAUAGCGAGGACCGGUACGGCCGCCACUCGUGAAGAAAAGGGAGUGAUGUUCCGUAAUGG [Kazoo B]”, the “apparent KD of K4 kissing-loop reporter” value is reported as 284 nM.
For “CGCGCGCGCUGAGAGGCGCGCGCGAAUGAUACCAGUAUAUAAGAAUACCCUUGGCAGCAUAAGAAAGAUAUAGUGAUGUUGUAUA [SSTheophA.D]”, the “apparent KD of K4 kissing-loop reporter” value was 199 nM.
With “AAGCAGUCACUCGAACCCAUCGAAGAUGGGCGAGGACCGGUACGGCCGCCACUCGGAGUGAUGUUCCGAAGACUGCAAAAUAAAA” the “apparent KD of K4 kissing-loop reporter” value was 367 nM.
For “GGGCAUCAGGCUGAUACCAGUGAUAAAGGAUAAGAGACAGGGAGUGAUGUUCCCUUUACCCACCCUUGGCAGCAGUUUAAGUUUG [Exclusion Theophylline B GF 16]”, the “apparent KD of K4 kissing-loop reporter” value was 94.9 nM.
With “GAGAACUCUUACGAUACCAGCCGGAGUGAUGUUCCGUGCUUGGACGUAGUAACCCGCACCGGCCCUUGGCAGCGUGGAUCCUAUG [Biorar]” the “apparent KD of K4 kissing-loop reporter” value was 78.3 nM.
